One test concerns the target T1, ACAD9_(SR194TS) (human, UniProt Q9H845 38-621, SR194TS).
T1 sequence: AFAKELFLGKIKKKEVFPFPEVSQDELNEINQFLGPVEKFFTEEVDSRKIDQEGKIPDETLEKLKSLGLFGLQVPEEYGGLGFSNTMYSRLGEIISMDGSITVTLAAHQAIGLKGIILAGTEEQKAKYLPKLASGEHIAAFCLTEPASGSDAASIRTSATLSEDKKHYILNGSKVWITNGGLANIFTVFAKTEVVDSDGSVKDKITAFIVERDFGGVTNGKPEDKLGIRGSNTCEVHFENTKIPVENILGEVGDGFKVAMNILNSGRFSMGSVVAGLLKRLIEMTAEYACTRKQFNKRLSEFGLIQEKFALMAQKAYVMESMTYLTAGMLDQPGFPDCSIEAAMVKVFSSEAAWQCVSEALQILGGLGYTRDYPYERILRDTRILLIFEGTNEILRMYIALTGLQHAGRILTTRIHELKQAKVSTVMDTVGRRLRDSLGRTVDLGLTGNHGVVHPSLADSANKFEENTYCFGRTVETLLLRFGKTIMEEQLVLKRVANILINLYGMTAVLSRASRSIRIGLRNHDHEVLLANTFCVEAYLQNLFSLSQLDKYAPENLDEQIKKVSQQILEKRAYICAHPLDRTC
Nature of the test: dynamic light scattering.

Another test has as its target T2, ACAD9_(A184S) (human, UniProt Q9H845 38-621, A184S).
T2 sequence: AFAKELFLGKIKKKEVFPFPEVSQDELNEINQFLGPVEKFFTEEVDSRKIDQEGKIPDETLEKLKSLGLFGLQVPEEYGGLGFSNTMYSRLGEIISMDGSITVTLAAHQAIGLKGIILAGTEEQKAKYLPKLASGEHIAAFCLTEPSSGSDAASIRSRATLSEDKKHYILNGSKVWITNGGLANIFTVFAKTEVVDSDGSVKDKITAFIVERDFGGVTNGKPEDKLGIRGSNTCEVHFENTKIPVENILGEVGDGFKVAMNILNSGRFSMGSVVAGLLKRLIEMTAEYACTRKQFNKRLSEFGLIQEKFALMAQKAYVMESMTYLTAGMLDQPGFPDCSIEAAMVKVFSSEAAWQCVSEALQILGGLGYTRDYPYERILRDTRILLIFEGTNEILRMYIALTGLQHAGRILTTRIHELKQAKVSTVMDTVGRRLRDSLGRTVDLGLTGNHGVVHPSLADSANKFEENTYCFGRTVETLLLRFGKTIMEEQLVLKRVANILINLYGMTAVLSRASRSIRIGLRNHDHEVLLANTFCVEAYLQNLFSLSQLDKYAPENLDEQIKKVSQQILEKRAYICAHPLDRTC
Description: dynamic light scattering.

Test [1] deals with T3, ACAD9WT (res. 38-621) (human, UniProt Q9H845 38-621).
T3 sequence: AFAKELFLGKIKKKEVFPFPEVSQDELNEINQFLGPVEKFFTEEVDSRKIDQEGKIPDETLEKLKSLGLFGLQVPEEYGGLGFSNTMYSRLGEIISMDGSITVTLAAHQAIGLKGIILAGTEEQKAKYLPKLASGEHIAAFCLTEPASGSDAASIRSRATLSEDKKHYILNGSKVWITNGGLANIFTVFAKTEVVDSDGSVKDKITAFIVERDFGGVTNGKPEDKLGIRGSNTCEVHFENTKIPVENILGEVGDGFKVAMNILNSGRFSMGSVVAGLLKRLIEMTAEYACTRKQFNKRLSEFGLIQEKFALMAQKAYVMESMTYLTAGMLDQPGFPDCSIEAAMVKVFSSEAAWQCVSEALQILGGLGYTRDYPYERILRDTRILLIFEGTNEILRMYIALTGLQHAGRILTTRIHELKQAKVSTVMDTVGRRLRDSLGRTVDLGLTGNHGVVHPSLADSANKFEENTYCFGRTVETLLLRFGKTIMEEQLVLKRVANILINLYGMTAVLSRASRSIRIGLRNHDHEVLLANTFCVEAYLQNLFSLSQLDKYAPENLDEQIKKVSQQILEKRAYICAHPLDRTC
Description: ITC. A general note: Isothermal titration calorimetry measures the heat released or taken up as one component is titrated into another.

The target in a further test is T4, ACAD9_(S191A) (human, UniProt Q9H845 38-621, S191A).
T4 sequence: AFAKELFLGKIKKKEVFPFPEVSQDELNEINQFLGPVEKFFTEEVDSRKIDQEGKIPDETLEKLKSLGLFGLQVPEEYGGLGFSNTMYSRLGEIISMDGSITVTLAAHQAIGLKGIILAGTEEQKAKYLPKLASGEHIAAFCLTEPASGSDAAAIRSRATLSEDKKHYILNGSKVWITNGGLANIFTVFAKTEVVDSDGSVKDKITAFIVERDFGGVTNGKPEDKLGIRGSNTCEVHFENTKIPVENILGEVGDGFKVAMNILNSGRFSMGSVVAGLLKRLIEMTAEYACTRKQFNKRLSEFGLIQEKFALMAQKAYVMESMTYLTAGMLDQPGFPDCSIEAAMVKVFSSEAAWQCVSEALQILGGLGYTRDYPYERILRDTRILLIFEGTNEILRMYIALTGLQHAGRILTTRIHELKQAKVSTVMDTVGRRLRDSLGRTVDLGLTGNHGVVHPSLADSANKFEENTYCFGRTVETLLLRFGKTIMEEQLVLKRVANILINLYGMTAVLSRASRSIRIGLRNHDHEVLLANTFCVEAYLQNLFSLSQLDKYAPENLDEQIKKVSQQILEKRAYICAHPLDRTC
Description: ITC.

Test [2] concerns the target T3, ACAD9WT (res. 38-621). Nature of the test: cryo-EM structure.

As a reminder, the Kd is the concentration at which binding is half-saturated.

B1: ECSIT_(CTER) (residues 221-431) (domain or fragment)
chain: QDPVELAMFGLRHMEPDLSARVTIYQVPLPKDSTGAADPPQPHIVGIQSPDQQAALARHNPARPVFVEGPFSLWLRNKCVYYHILRADLLPPEEREVEETPEEWNLYYPMQLDLEYVRSGWDNYEFDINEVEEGPVFAMCMAGAHDQATMAKWIQGLQETNPTLAQIPVVFRLAGSTRELQTSSAGLEEPPLPEDHQEEDDNLQRQQQGQS
B1: the binding result with ACAD9_(SR194TS) and with ACAD9_(A184S) was “binds” in each case. Moreover, the Kd with ACAD9WT (res. 38-621) [1] stood at 1.45 µM; in the test with ACAD9_(S191A) it was 3.93 µM. In the test with ACAD9WT (res. 38-621) [2], the “stoichiometry N” value was 1 ECSIT_(CTER) per ACAD9 protomer.

Source of the values: paper doi:10.1101/2023.02.23.529646 (bioRxiv, 2023).
